Experimental findings from the supplement of paper PMC7877785 are described below.

± gives the uncertainty stated by the source.

The nature of this series: self-splicing fitness, log relative to wild type (ln ratio); higher = more splicing; Tetrahymena group I intron in knt gene, E. coli kanamycin selection, DiMSum; sequences stand for … in CUCUCU…GGAGGGAAAAGUUAUCAGGCAUGCACCUGGUAGCUAGUCUUUAAACCAAUAGAUUGCAUCGGUUUAAAAGGCAAGACCGUCAAAUUGCGGGAAAGGGGUCAACAGCCGUUCAGUACCAAGUCUCAGGGGAAACUUUGAGAUGGCCUUGCAAAGGGUAUGGUAAUAAGCUGACGGACAUGGUCCUAACCACGCAGCCAAGUCCUAAGUCAACAGAUCUUCUGUUGAUAUGGAUGCAGUUCACAGACUAAAUGUCGGUCGGGGAAGAUGUAUUCUUCUCAUAAGAUAUAGUCGGACCUCUCCUUAAUGGGAGCUAGCGGAUGAAGUGAUGCAACACUGGAGCCGCUGGGAACUAAUUUGUAUGCGAAAGUAUAUUGAUUAGUUUUGGAGUACUCGUGGUCG
The method in brief: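 Pooled colonies went to amplicon sequencing on an Illumina HiSeq 2500 after six replicate transformations. The plates were LB agar with 100 μg/mL carbenicillin, 50 μM IPTG and 0.2% rhamnose, with or without 25 μg/mL kanamycin, incubated overnight at 37°C or 30°C. The E. coli BL21(DE3) library had all eight P1ex-region intron nucleotides randomised, the intron placed in the knt kanamycin-resistance gene on pET-22b(+). DiMSum fitness is the error-weighted combination of replicate fold changes, kanamycin against none, normalised to wild type.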

As to CGGAAGCAAUAUUACGGGUG, the “self-splicing fitness (ln)” value reads like this: (30 °C) -0.485 ± 0.09; (37 °C) 0.544 ± 0.086.

With CGGAAGCAAUAUUACGGGUU, the “self-splicing fitness (ln)” value (30 °C) is -4.48 ± 0.26 and the “self-splicing fitness (ln)” value (37 °C) was -2.77 ± 0.2. The matching figures for CGGAAGCAAUAUUACGGUGG: -0.759 ± 0.099 and -0.586 ± 0.1.

As to CGGAAGCAAUAUUACGUAAA, the “self-splicing fitness (ln)” value (30 °C) was -2.94 ± 0.21 and the “self-splicing fitness (ln)” value (37 °C) was -1.79 ± 0.23. The matching figures for CGGAAGCAAUAUUACGUCCU: 0.17 ± 0.12 and 0.626 ± 0.12. Consider CGGAAGCAAUAUUACGUCGA, for which the “self-splicing fitness (ln)” value by setting is: (30 °C) -2.59 ± 0.19; (37 °C) -1.67 ± 0.18.

Take CGGAAGCAAUAUUACGUGGC: the “self-splicing fitness (ln)” value is, setting by setting: (30 °C) -3.67 ± 0.18; (37 °C) -2.54 ± 0.23. For the sequence CGGAAGCAAUAUUACGUGGU, the “self-splicing fitness (ln)” value was -3.62 ± 0.21 (30 °C) and -1.94 ± 0.2 (37 °C).

With CGGAAGCAAUAUUACGUGUA, the “self-splicing fitness (ln)” value reads like this: (30 °C) -3.19 ± 0.17; (37 °C) -3.6 ± 0.27. The matching figures for CGGAAGCAAUAUUACGUUGC: -3.59 ± 0.26 and -2.69 ± 0.48. Take CGGCAGCAAUAUUACGAACC: the “self-splicing fitness (ln)” value is -0.757 ± 0.33 (30 °C) and -0.368 ± 0.37 (37 °C).

As for CGGCAGCAAUAUUACGACCA, the “self-splicing fitness (ln)” value by setting is: (30 °C) -0.307 ± 0.1; (37 °C) 0.682 ± 0.14. The matching figures for CGGCAGCAAUAUUACGAGAC: -3.78 ± 0.22 and -3.43 ± 0.35. The matching figures for CGGCAGCAAUAUUACGAGUC: -1.86 ± 0.34 and -1.76 ± 0.25.

CGGCAGCAAUAUUACGCACA: the “self-splicing fitness (ln)” value reads like this: (30 °C) -0.39 ± 0.1; (37 °C) -0.122 ± 0.14. On to CGGCAGCAAUAUUACGCACU, for which the “self-splicing fitness (ln)” value reads like this: (30 °C) -1.45 ± 0.086; (37 °C) -0.361 ± 0.1.

For the sequence CGGCAGCAAUAUUACGCGCU, the “self-splicing fitness (ln)” value reads like this: (30 °C) -4.1 ± 0.25; (37 °C) -1.99 ± 0.25. Regarding CGGCAGCAAUAUUACGGACC, the “self-splicing fitness (ln)” value is -2.09 ± 0.26 (30 °C) and -1.26 ± 0.2 (37 °C). The matching figures for CGGCAGCAAUAUUACGGAGC: -3.37 ± 0.14 and -3.3 ± 0.2.

On to CGGCAGCAAUAUUACGGCAC, for which the “self-splicing fitness (ln)” value was -2.58 ± 0.28 (30 °C) and -2.21 ± 0.22 (37 °C). On to CGGCAGCAAUAUUACGGCAG, for which the “self-splicing fitness (ln)” value by setting is: (30 °C) -0.677 ± 0.095; (37 °C) -0.796 ± 0.11. The matching figures for CGGCAGCAAUAUUACGGCGG: -1.26 ± 0.11 and -0.79 ± 0.14.

Consider CGGCAGCAAUAUUACGGGGU, for which the “self-splicing fitness (ln)” value is -3.58 ± 0.19 (30 °C) and -3.28 ± 0.31 (37 °C). The matching figures for CGGCAGCAAUAUUACGGUAU: -3.82 ± 0.19 and -3.18 ± 0.22. As for CGGCAGCAAUAUUACGUAGA, the “self-splicing fitness (ln)” value runs as follows: (30 °C) -2.33 ± 0.12; (37 °C) -1.19 ± 0.17.

Consider CGGCAGCAAUAUUACGUGCU, for which the “self-splicing fitness (ln)” value (30 °C) is -3 ± 0.14 and the “self-splicing fitness (ln)” value (37 °C) was -1.63 ± 0.16. Take CGGCAGCAAUAUUACGUGUC: the “self-splicing fitness (ln)” value was -3.89 ± 0.31 (30 °C) and -2.6 ± 0.2 (37 °C). The matching figures for CGGCAGCAAUAUUACGUUAC: -3.4 ± 0.2 and -3.3 ± 0.33. The matching figures for CGGCAGCAAUAUUACGUUGG: -2.38 ± 0.11 and -1.46 ± 0.12.

In the case of CGGGAGCAAUAUUACGAAUU, for the setting “30 °C”, the “self-splicing fitness (ln)” value was -3.16 ± 0.34. Same read-out and setting: the result for CGGGAGCAAUAUUACGCCGU reads -3.46 ± 0.47. Take CGGGAGCAAUAUUACGCGGC: the “self-splicing fitness (ln)” value was -2.4 ± 0.43 (30 °C) and -1.77 ± 0.3 (37 °C). The matching figures for CGGGAGCAAUAUUACGCUAU: -3.6 ± 0.31 and -2.64 ± 0.48. The matching figures for CGGGAGCAAUAUUACGCUGA: -1.34 ± 0.21 and -2.14 ± 0.31.
